Laboratory results from paper PMC8777244.

Columns and labels:
[1] = molecular target: human Nox5β CaM-binding domain (CMBD) peptide, residues 671-689 (human); assay: other fluorescence titration
[2] = molecular target: N-terminal Dansyl-labeled human Nox5β CMBD peptide (human); assay: other fluorescence titration
[3] = molecular target: MBP-fused human Nox5β dehydrogenase domain residues 528-719 (human) (UniProt Q96PH1); assay: ITC
[4] = molecular target: MBP-fused human Nox5β dehydrogenase domain residues 584-719 (human) (UniProt Q96PH1); assay: ITC
[5] = molecular target: MBP-fused human Nox5β dehydrogenase domain residues 605-719 (human) (UniProt Q96PH1); assay: ITC
[6] = molecular target: MBP-fused human Nox5β dehydrogenase domain residues 665-719 (human) (UniProt Q96PH1); assay: ITC
[7] = molecular target: human Nox5β CaM-binding domain (CMBD) peptide, residues 671-689 (human); assay: ITC
[8] = molecular target: human Nox5β CaM-binding domain (CMBD) peptide, residues 671-689 (human); assay: fluorescence polarisation

Chain of MBP-fused human Nox5β dehydrogenase domain residues 528-719 (human) (Q96PH1 574-765): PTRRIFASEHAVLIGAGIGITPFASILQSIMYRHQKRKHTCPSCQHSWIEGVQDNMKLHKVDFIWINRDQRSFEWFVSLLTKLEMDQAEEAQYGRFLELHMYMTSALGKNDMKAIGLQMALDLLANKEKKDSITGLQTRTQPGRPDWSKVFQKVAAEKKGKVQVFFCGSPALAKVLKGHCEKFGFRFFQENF
Chain of MBP-fused human Nox5β dehydrogenase domain residues 665-719 (human) (Q96PH1 711-765): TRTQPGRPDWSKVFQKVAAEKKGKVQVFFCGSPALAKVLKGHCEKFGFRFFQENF
Chain of MBP-fused human Nox5β dehydrogenase domain residues 584-719 (human) (Q96PH1 630-765): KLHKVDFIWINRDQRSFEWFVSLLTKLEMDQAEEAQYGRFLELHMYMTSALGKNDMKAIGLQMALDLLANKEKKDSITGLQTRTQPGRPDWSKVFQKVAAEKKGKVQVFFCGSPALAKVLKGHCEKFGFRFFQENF
Chain of MBP-fused human Nox5β dehydrogenase domain residues 605-719 (human) (Q96PH1 651-765): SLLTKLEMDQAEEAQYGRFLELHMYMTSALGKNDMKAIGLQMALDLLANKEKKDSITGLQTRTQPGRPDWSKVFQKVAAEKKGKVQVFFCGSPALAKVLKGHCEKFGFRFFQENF

stoichiometry N ([peptide]/Protein]) [1]: 2.1
stoichiometry N ([peptide]/Protein]) [2]: 2.11
dH [3]: -19 kcal/mol
stoichiometry N ([peptide]/Protein]) [3]: 1.18
dH [4]: -16.8 kcal/mol
stoichiometry N ([peptide]/Protein]) [4]: 1.04
dH [5]: -14.8 kcal/mol
stoichiometry N ([peptide]/Protein]) [5]: 1.15
dH [6]: -8.21 kcal/mol
stoichiometry N ([peptide]/Protein]) [6]: 1.15
dH (per mole protein) [7]: -7.85 kcal/mol
stoichiometry N [7]: 0.521
stoichiometry N ([peptide]/Protein]) [7]: 1.79
stoichiometry N ([peptide]/Protein]) [8]: 1.91
Substance: recombinant 6xHis-tagged calmodulin (from UniProt P0DP23 1-149) (natural protein)
